B1: OR3A1 (parent)
chain: PMYFFLGNLSVLDVGCISVTVPSM
B2: DYRK1B (parent)
chain: ARKYFERLPGGGWTLRRTKELRKD

Variants of: B1
Test: protein stability index of a GFP-peptide fusion (GPS, HEK-293T) (PSI 1-6); higher = more stable
Conditions: c terminus: a fixed tail appended
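Also: lentivirally expressed fusions sorted by FACS into six bins by GFP to DsRed ratio, PSI derived from sequencing read proportions per bin multiplied by bin number.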

In order of falling protein stability index:
1. PMVFFLGNLSVLDVGCISVTVPSM [Y3V]  4.51
2. PMTFFLGNLSVLDVGCISVTVPSM [Y3T]  4.47
3. PLYFFLGNLSVLDVGCISVTVPSM [M2L]  4.31
4. PMCFFLGNLSVLDVGCISVTVPSM [Y3C]  4.31
5. PMYMFLGNLSVLDVGCISVTVPSM [F4M]  4.21
6. PMYFFLGNLSVLCVGCISVTVPSM [D13C]  4.05
7. PMYFFLFNLSVLDVGCISVTVPSM [G7F]  3.9
8. PMYFSLGNLSVLDVGCISVTVPSM [F5S]  3.9
9. PMYFFLGNLSVLDVHCISVTVPSM [G15H]  3.73
10. PMYFFLGNLSVLDVRCISVTVPSM [G15R]  3.7
11. PMYFFLGNLSVLDVDCISVTVPSM [G15D]  3.7
12. PMYFFLGNLSFLDVGCISVTVPSM [V11F]  3.67
13. PMYFFLGNLSVLEVGCISVTVPSM [D13E]  3.63
14. PMYFFLGWLSVLDVGCISVTVPSM [N8W]  3.59
15. PMYFFLGNLSSLDVGCISVTVPSM [V11S]  3.56
16. PMYFFLGNLSILDVGCISVTVPSM [V11I]  3.56
17. PMYFFLGNLFVLDVGCISVTVPSM [S10F]  3.53
18. PMYFFLGNLKVLDVGCISVTVPSM [S10K]  3.48
19. PMYFFLGNLSVLPVGCISVTVPSM [D13P]  3.47
20. PMYFFLGNLSVLFVGCISVTVPSM [D13F]  3.38
21. PMYFFLGNLYVLDVGCISVTVPSM [S10Y]  3.38
22. PMYFFLGNLSVLIVGCISVTVPSM [D13I]  3.37
23. PMHFFLGNLSVLDVGCISVTVPSM [Y3H]  3.35
24. PMYFFLGNLWVLDVGCISVTVPSM [S10W]  3.31
25. PMYFFLGNLMVLDVGCISVTVPSM [S10M]  3.29
26. PMYPFLGNLSVLDVGCISVTVPSM [F4P]  3.27
27. PMYFFLGNLSVLLVGCISVTVPSM [D13L]  3.26
28. PMYFFLGNLEVLDVGCISVTVPSM [S10E]  3.25
29. PKYFFLGNLSVLDVGCISVTVPSM [M2K]  3.24
30. PMYFFLGNLSELDVGCISVTVPSM [V11E]  3.18
31. PMYFFLGNLSVLDVMCISVTVPSM [G15M]  3.18
32. PMYFFLGNLSRLDVGCISVTVPSM [V11R]  3.13
33. PMYFFLGNLSDLDVGCISVTVPSM [V11D]  3.12
34. PMYFFLGNLSVLDVFCISVTVPSM [G15F]  2.94
35. PMYFFLGNLSVLDVWCISVTVPSM [G15W]  2.87
36. PMYFFLGNLSTLDVGCISVTVPSM [V11T]  2.86
37. PMYFFLGNLSYLDVGCISVTVPSM [V11Y]  2.86
38. PMYFFLGNLSVLDVICISVTVPSM [G15I]  2.83
39. PMYFNLGNLSVLDVGCISVTVPSM [F5N]  2.82
40. PMYFFLGNLCVLDVGCISVTVPSM [S10C]  2.81
41. PMYFFLGNLSGLDVGCISVTVPSM [V11G]  2.77
42. PMYFFLGNLSVLKVGCISVTVPSM [D13K]  2.74
43. PMFFFLGNLSVLDVGCISVTVPSM [Y3F]  2.74
44. PMYFFLSNLSVLDVGCISVTVPSM [G7S]  2.72
45. PMYFFLGGLSVLDVGCISVTVPSM [N8G]  2.71
46. PMYFFLGNLSVLDVTCISVTVPSM [G15T]  2.71
47. PMYFFLGNLSVLDVCCISVTVPSM [G15C]  2.71
48. PHYFFLGNLSVLDVGCISVTVPSM [M2H]  2.67
49. PMYFFLGNLSQLDVGCISVTVPSM [V11Q]  2.65
50. PMYFHLGNLSVLDVGCISVTVPSM [F5H]  2.64
51. PMYDFLGNLSVLDVGCISVTVPSM [F4D]  2.63
52. PMYFFLGNLSVLDVNCISVTVPSM [G15N]  2.63
53. PMYFFLGNLSLLDVGCISVTVPSM [V11L]  2.58
54. PMYFFLGNLSVLYVGCISVTVPSM [D13Y]  2.55
55. PMYFFLGNLSVLGVGCISVTVPSM [D13G]  2.55
56. PMYFFLGNLSVLQVGCISVTVPSM [D13Q]  2.48
57. PMNFFLGNLSVLDVGCISVTVPSM [Y3N]  2.37
58. PMYFFLGNLSVLDVPCISVTVPSM [G15P]  2.36
59. PMYFFLGNLSVLMVGCISVTVPSM [D13M]  2.35
60. PMYFFLGNLSVLSVGCISVTVPSM [D13S]  2.33
61. PGYFFLGNLSVLDVGCISVTVPSM [M2G]  2.32
62. PIYFFLGNLSVLDVGCISVTVPSM [M2I]  2.31
63. PMYFVLGNLSVLDVGCISVTVPSM [F5V]  2.3
64. PMMFFLGNLSVLDVGCISVTVPSM [Y3M]  2.3
65. PMYFFLGPLSVLDVGCISVTVPSM [N8P]  2.27
66. PMYFFLGNLRVLDVGCISVTVPSM [S10R]  2.27
67. PMYFFLGNLSNLDVGCISVTVPSM [V11N]  2.23
68. PMGFFLGNLSVLDVGCISVTVPSM [Y3G]  2.22
69. PMYRFLGNLSVLDVGCISVTVPSM [F4R]  2.19
70. PTYFFLGNLSVLDVGCISVTVPSM [M2T]  2.15
71. PMYFFLGNLSVLDVSCISVTVPSM [G15S]  2.12
72. PMYFFLGNLSVLNVGCISVTVPSM [D13N]  2.1
73. PEYFFLGNLSVLDVGCISVTVPSM [M2E]  2.1
74. PMYFFLGFLSVLDVGCISVTVPSM [N8F]  2.06
75. PMYFDLGNLSVLDVGCISVTVPSM [F5D]  2.06
76. PMYFFLKNLSVLDVGCISVTVPSM [G7K]  2.05
77. PMYFFLGNLLVLDVGCISVTVPSM [S10L]  2.05
78. PMYFFLGNLSVLDVKCISVTVPSM [G15K]  2.02
79. PMYFFLGNLSVLDVACISVTVPSM [G15A]  2
80. PMYFFLNNLSVLDVGCISVTVPSM [G7N]  1.99
81. PMYFFLGNLSVLDVYCISVTVPSM [G15Y]  1.93
82. PMYSFLGNLSVLDVGCISVTVPSM [F4S]  1.91
83. PMYFGLGNLSVLDVGCISVTVPSM [F5G]  1.83
84. PMYFPLGNLSVLDVGCISVTVPSM [F5P]  1.79
85. PMYFFLGNLSVLVVGCISVTVPSM [D13V]  1.73
86. PMYKFLGNLSVLDVGCISVTVPSM [F4K]  1.52
87. PMYFELGNLSVLDVGCISVTVPSM [F5E]  1.46
88. PMYTFLGNLSVLDVGCISVTVPSM [F4T]  1.26
89. PMYFFLGNLQVLDVGCISVTVPSM [S10Q]  1.03

Variants of: B2
Test: as above
Conditions: c terminus: a fixed tail appended

In order of falling protein stability index:
1. ARKYFERLPGGGWTLRRTKELRKQ [D24Q]  3.68
2. ARKYFERLPGGGWTLRRTKELRKT [D24T]  3.36
3. ARKYFERLPGGGWTLRRTKELRKR [D24R]  3
4. ARKYFERLPGGGWTLRRTKELRKL [D24L]  2.58
5. ARKYFERLPGGGWTLRRTKELRKW [D24W]  1.91

Reference: the supplement of paper PMC10567573
